This note sets out measurements from US20200171163A1 (Daiichi Sankyo, published 2020).

Positions count from the first letter of the chain named.

The labels stand for the following.
B1: H02L02 antibody (antibody, human IgG1, kappa, V domains shown)
VH: EVQLVQSGAEVKKPGASVKVSCKASGYTFTRNFMHWVRQAPGQGLEWMGWIYPGDGETEYNQKFQGRVTITADRSTSTAYMELSSLRSEDTAVYFCARGVYGGFAGGYFDFWGQGTLVTVSS
VL: DIQMTQSPSSLSASVGDRVTITCKASQNIYKNLAWYQQKPGKAPKLLIYDANTLQTGVPSRFSGSGSGSDFTLTISSLQPEDFATYFCQQYYSGWAFGQGTKVEIKR
notes: Humanized IgG1/kappa (hH02 + hL02); also called humanized hG019 antibody H02L02
B2: H01L02 antibody (antibody, human IgG1, kappa, V domains shown)
VH: B1 VH with N61A, R74T, F95Y
VL: B1 VL
notes: Humanized IgG1/kappa (hH01 + hL02); also called humanized hG019 antibody H01L02; labeled H01L02
B3: H02L03 antibody (antibody, human IgG1, kappa, V domains shown)
VH: B1 VH
VL: B1 VL with P40L, K42E, A43G, S69T, F87Y
notes: Humanized IgG1/kappa (hH02 + hL03); also called humanized hG019 antibody H02L03
B4: H04L02 antibody (antibody, human IgG1, kappa, V domains shown)
VH: B1 VH with E1Q, V37I, N61A, I70L, F95Y
VL: B1 VL
notes: Humanized IgG1/kappa (hH04 + hL02); also called humanized hG019 antibody H04L02
B5: rG056 antibody (antibody, V domains shown)
VH: EVQLQESGPGLVKPSQSLSLTCSVTDYSITTYFWGWIRKFPGNKMEWMGYMSYRGGTSYNPSLKSRISITRDTSKNQFFLQLNSVTTEDTATYYCARCPNYGGHSLVFDYWGQGVMVTVSS
VL: DVQMTQSPSSLAASPGESVSISCRATKSIGIYLAWYQQKPGKTFKLLIYSGSTLQSGTPSRFSGSGSGTDFTLTIRSLEPEDFGLYFCQQFYENPFTFGSGTKLEIRR
notes: Rat monoclonal purified from hybridoma; also called rat anti-CDH6 monoclonal antibody clone rG056
B6: rG019 antibody (antibody, V domains shown)
VH: QVQLQQSGAELVKPGSSVKISCKASGYTFTRNFMHWIKQQPGNGLEWIGWIYCGDGETEYNQKFNGKATLTADRSSSTAYMELSRLTSEDSAVYFCARGVYGGFAGGYFDFWGQGVMVTVSS
VL: DIQMTQSPSLLSASVGDRVTLNCKASQNIYKNLAWYQQKLGEGPKLLIYDANTLQTGIPSRFSGSGSGSDFTLTISSLQPEDVATYFCQQYYSGWAFGGVTNLELKRA
notes: Rat monoclonal purified from hybridoma; also called rat anti-CDH6 monoclonal antibody clone rG019
B7: rG055 antibody (antibody, V domains shown)
VH: EVQLQESGPGLVRPSQSLSLSCSVTDYSITSNYWGWIRRFPGNKMEWMGYITYSGYTSYNPSLQSRISITRDTSKNQFFLQLNSVTAEDTATYYCARSINHGGYSYVVDAWGPGASVTVSS
VL: DVQMTHSPSYLAASPGESVSISCKTSKNISNYLVWYQQKPGEAYKLLIYSGSTLQSGTPSRFSGSGSGTDFTLTIRSLEPEDFGLYFCQQYYEKPFTFGSGTKLEIKR
notes: Rat monoclonal purified from hybridoma; also called rat anti-CDH6 monoclonal antibody clone rG055
B8: rG061 antibody (antibody, V domains shown)
VH: EVQLQESGPGLVKPSQSLSLTCSVTGYSITTYYWGWIRKFPGNKMEWMGYISYSGRTSYNPSLKSRMSITRDASKNQFFLQLNSVTTDDTATYYCARSPINHGGYWYFDFWGPGTMVTVSS
VL: B7 VL with H6Q, T25A, S26T, N28S, V34A, L46V, F87S, F96L
notes: Rat monoclonal purified from hybridoma; also called rat anti-CDH6 monoclonal antibody clone rG061

For one assay, the target named is T1, rat CDH6 (on cells) (rat, UniProt P55280 54-789).
T1 construct: also called rCDH6
T1 sequence: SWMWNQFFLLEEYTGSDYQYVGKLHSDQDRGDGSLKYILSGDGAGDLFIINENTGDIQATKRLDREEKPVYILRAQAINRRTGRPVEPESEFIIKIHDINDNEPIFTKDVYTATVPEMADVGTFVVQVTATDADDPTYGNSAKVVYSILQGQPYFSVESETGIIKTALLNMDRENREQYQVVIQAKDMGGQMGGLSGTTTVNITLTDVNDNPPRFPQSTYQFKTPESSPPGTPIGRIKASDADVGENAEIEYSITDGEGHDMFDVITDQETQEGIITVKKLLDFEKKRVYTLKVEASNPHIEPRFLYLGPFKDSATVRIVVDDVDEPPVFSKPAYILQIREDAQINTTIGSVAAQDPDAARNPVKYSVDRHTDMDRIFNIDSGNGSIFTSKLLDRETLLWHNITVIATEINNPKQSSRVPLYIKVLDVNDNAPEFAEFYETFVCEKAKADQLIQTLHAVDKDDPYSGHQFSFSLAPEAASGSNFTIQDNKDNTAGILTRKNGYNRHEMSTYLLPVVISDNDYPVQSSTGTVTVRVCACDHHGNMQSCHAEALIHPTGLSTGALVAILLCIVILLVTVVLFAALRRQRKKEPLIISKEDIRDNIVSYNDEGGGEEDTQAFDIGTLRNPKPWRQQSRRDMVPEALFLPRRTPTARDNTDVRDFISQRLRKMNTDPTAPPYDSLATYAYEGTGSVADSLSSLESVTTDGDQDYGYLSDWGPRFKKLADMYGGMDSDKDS
As to the kind of experiment: flow cytometry, MFI vs antibody concentration; 293α cells transiently transfected with rCDH6; PE anti-human IgG Fc. The protocol: The cells were cultured overnight under conditions of 37° C. and 5% CO₂, and thereafter, a cell suspension was prepared. […] Thereafter, the cells were suspended by the addition of each of the 4 humanized hG019 antibodies (clone Nos: H01L02, H02L02, H02L03 and H04L02), which had been prepared in Example 5)-5-3, or human IgG1 control (Calbiochem). The cells were left standing at 4° C. for 1 hour. The cells were washed twice with PBS supplemented with 5% FBS, and then suspended by the addition of anti-human IgG, Fc(gamma) PE goat F(ab′) (Jackson ImmunoResearch Laboratories, Inc.) that had been 500-fold diluted with PBS supplemented with 5% FBS. The cells were left standing at 4° C. for 1 hour. The cells were washed twice with PBS supplemented with 5% FBS, followed by detection using a flow cytometer (Canto II; BD Biosciences). The data was analyzed using FlowJo (Tree Star, Inc.). In FIGS. 6-1 and 6-2, the abscissa depicts antibody concentration, and the ordinate depicts the amount of the antibody bound based on mean fluorescence intensity. As shown in FIGS. 6-1 and 6-2, the human IgG1 control as a negative control binds to none of the CDH6-transfected cells. The 4 humanized hG019 antibodies (clone Nos: H01L02, H02L02, H02L03 and H04L02) bind to human CDH6 and cynomolgus monkey CDH6, but bind to neither mouse nor rat CDH6. None of the antibodies bind to the cells transfected with the empty vector pcDNA3.1 as a negative control.
Take B1: the binding result was “no binding (tested: about 4 nM)”.
Still for that read-out and setting: under B2 stands “no binding (tested: about 4 nM)”.
In the case of B3, the binding result is reported as “no binding (tested: about 4 nM)”.
Same read-out and setting: in the case of B4 it was “no binding (tested: about 4 nM)”.

The next assay has as its target T2, human CDH6 (full-length, on cells) (human, UniProt P55285 54-790).
T2 construct: also called hCDH6; full-length hCDH6
T2 sequence: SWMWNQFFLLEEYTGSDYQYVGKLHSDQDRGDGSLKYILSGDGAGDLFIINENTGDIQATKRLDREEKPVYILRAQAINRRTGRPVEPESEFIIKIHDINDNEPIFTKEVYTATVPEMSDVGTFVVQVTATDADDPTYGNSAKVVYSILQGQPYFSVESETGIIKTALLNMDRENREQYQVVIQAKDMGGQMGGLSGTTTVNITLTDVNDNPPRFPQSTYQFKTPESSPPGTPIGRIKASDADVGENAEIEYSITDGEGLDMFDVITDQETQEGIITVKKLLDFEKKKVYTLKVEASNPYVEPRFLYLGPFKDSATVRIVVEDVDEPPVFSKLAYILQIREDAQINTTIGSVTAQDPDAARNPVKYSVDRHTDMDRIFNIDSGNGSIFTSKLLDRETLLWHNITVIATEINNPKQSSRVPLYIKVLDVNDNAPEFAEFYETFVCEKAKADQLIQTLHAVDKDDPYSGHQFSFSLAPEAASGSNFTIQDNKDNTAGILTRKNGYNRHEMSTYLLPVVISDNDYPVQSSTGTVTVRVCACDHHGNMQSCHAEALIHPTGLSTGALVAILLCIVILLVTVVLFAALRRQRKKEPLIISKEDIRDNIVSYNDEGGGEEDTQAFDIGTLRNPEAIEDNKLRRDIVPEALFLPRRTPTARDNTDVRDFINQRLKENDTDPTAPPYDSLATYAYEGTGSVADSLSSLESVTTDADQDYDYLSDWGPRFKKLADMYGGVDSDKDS
The assay is described as follows: flow cytometry; hCDH6-transfected 293T cells (open) vs untransfected control cells (shaded); antibody 10 ng/mL; anti-rat IgG-FITC. The protocol: The human CDH6-binding activity of the rat anti-CDH6 antibody produced in Example 1)-7 was evaluated by flow cytometry. […] The cells were cultured overnight under conditions of 37° C. and 5% CO₂, and thereafter, a cell suspension was prepared. […] Thereafter, the cells were suspended by the addition of each of the 4 rat anti-CDH6 monoclonal antibodies (clone Nos: rG019, rG055, rG056 and rG061), which had been prepared in Example 1)-7, or rat IgG control (R&D Systems, Inc.) (final concentration: 10 ng/mL). The cells were left standing at 4° C. for 1 hour. The cells were washed twice with PBS supplemented with 5% FBS, and then suspended by the addition of Anti-Rat IgG (whole molecule)-FITC antibody produced in rabbit (Sigma-Aldrich Co. LLC) that had been 50-fold diluted with PBS supplemented with 5% FBS. The cells were left standing at 4° C. for 1 hour. The cells were washed twice with PBS supplemented with 5% FBS, followed by detection using a flow cytometer (FC500; Beckman Coulter, Inc.). The data was analyzed using FlowJo (Tree Star, Inc.). In the histogram of FIG. 1, the abscissa depicts FITC fluorescence intensity indicating the amount of the antibody bound, and the ordinate depicts a cell count. […] The rat IgG control binds to neither of the cells.
Background: Flow cytometry measures light scatter and fluorescence of single cells or particles in a stream.
B5: the binding result was “binds”.
Still for that read-out and setting: under B6 stands “binds”.
Same read-out and setting: in the case of B7 it was “binds”.
Same read-out and setting: in the case of B8 it was “binds”.
